Data on two molecules can be found in US20220259301A1.

This assay concerns the target human IL-23 (human) (UniProt Q9NPF7).
Chain of UniProt Q9NPF7 (Q9NPF7 20-189, chain 1 of 2): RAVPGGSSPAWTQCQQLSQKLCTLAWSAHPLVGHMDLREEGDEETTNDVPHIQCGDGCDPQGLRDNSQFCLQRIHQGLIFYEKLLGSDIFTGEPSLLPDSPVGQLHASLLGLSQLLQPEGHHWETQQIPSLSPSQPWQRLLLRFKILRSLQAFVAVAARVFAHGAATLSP
Chain of UniProt Q9NPF7 (chain, as listed by the source, chain 2 of 2): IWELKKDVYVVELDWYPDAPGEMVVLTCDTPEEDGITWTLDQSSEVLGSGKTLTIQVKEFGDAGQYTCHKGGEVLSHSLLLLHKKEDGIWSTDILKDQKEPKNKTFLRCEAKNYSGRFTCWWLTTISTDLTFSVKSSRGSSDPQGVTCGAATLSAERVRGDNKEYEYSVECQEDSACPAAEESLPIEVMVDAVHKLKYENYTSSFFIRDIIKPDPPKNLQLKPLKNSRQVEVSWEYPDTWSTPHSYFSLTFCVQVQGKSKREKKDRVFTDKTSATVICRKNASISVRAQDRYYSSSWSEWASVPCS

ustekinumab (antibody): the IL-23 stimulated IL-17 production came to 167 pM.

B1: Risankizumab (antibody, V domains shown)
VH: QVQLVQSGAEVKKPGSSVKVSCKASGYTFTDQTIHWMRQAPGQGLEWIGYIYPRDDSPKYNENFKGKVTITADKSTSTAYMELSSLRSEDTAVYYCAIPDRSGYAWFIYWGQGTLVTVSS
VL: DIQMTQSPSSLSASVGDRVTITCKASRDVAIAVAWYQQKPGKVPKLLIYWASTRHTGVPSRFSGSGSRTDFTLTISSLQPEDVADYFCHQYSSYPFTFGSGTKLEIKR
Take B1: the IL-23 stimulated IL-17 production is under 10 pM.
